The values below come from patent US7098302B2, “Binding peptides specific for the extracellular domain of ErbB2 and uses therefor” (University of Vermont and State Agricultural College, priority 2001, dated 2006).

Assay [1] has as its target T1, native, intact ErbB2 extracted from the membranes of human breast cancer cells (Homo sapiens, UniProt P04626).
T1 construct: native, intact ErbB2 extracted from the membranes of human breast cancer cells; endogenous in cells; host or cells: BT474 and SKBR3 breast cancer cells (MCF7 as low-expression control)
The assay is described as follows: ELISA of peptide phage on solubilized membrane lysates captured with anti-ErbB2 antibody. Format: binding. How it is done: The above identified peptide phage specifically bind to native, intact ErbB2 extracted from the membranes of human breast cancer cells that overexpress ErbB2. Plates were coated with 1 μg of an antibody that binds to the intracellular domain of ErbB2, followed by 100 μl of solubilized membrane preparations from two different breast cancer cell lines that overexpress ErbB2 (BT474 and SKBR3), and probed with CB1 peptide-phage, control library phage, and 9G6 anti-ErbB2. MCF7 cells serve as a (relative) negative target control, as MCF7 breast cancer cells express only a low level of ErbB2.
Peptide phage derived from the EC-1 biases library similarly bind specifically to membrane lysates from ErbB2 expressing SKBR3 cells but not to lysates from minimally expressing MCF7 cells. (See FIG. 2B.)

Assay [2] concerns the target T2, ErbB2 (pY1248, pY877) in SKBR3 cells (Homo sapiens, UniProt P04626).
T2 construct: ErbB2 overexpressing SKBR3 cells were treated with the EC-1 free peptide; endogenous in cells; host or cells: SKBR3
The assay is described as follows: ErbB2 phosphorylation, Western blot with phospho-specific ErbB2 antibodies and densitometry. It counts as cell-based. How it is done:
FIG. 6A is a Western blot analysis of SKBR3 cell lysates made at various times following 15 minute treatment with 25 μM EC-1 peptide. Blots were probed with pY1248 phospho ErbB2 antibody, pY877 phospho ErbB2 antibody and total ErbB2 antibody.
ErbB2 overexpressing SKBR3 cells were treated with the EC-1 free peptide to determine its effect on ErbB2 activation. When ErbB2 is activated it becomes phosphorylated on specific tyrosine residues (i.e., pY1248 and pY877). This is turn triggers downstream signal transduction events, culminating in increased cellular proliferation. Viable SKBR3 cells were treated with 25 μM EC-1 peptide for 15 minutes. At 0.5, 2, 4, 8, 22 and 48 hours thereafter, cell lysates were prepared and run on a Western blot using phospho-specific ErbB2 antibodies. […] (See FIG. 6B.) The peptide had no effect on total ErbB2 expression.

For “WTGW C LNPEESTWGF C TGSF (WTGWCLNPEESTWGFCTGSF) [EC-1]”, in assay [1] (BT474 and/or SKBR3 lysates), the “binding to membrane lysates from ErbB2 overexpressing cells by ELISA” value is reported as “binding to SKBR3”. Further, the “binding to membrane lysates from MCF7 cells by ELISA” value in assay [1] (MCF7 cells express only a low level of ErbB2) is recorded as “not to MCF7”. Besides, in assay [2] (25 μM EC-1), the “time for which phosphorylation of ErbB2 is inhibited after treatment” value is given as “at least 8 hours”. Further, in assay [2] (25 μM EC-1 peptide), the “effect on total ErbB2 expression” value was “no effect”. In assay [2] (25 μM EC-1 peptide for 15 minutes, after 0.5 hrs), the “inhibition of the phosphorylation of residues pY1248 and pY877 of ErbB2” value turned out to be 40%.
